Series [1] concerns U937 cells. The experiment in a line: LDH release assay, U937 cells. The format is cell-based, human. The following applies: 30 min and 4 hr, listed as D-NA-NOXA SAHB-15 R31E. As to the method:
After overnight incubation for A375P cells, or immediately upon plating for U937 cells, the cells were treated with the indicated concentrations of D-NA-NOXA SAHBs in DMEM or RPMI supplemented with 5% FBS for the indicated time period (30 min, 4 h). After plate centrifugation at 1,500 rpm (Thermo Scientific Sorvall Four-Place Swinging Bucket Rotor [75006445]; 478×g) for 5 min at 4° C., LDH release was quantified by transferring 100 μL of cell-culture medium to a clear plate (Corning), incubating with 100 μL of LDH reagent (Roche) for 30 min while shaking, and then measuring absorbance at 490 nm on a microplate reader (Spectramax M5, Molecular Devices).
On the technique in general: Release of lactate dehydrogenase indicates damage to the cell membrane.

Series [2] has as its target T1, native BFL-1 (Homo sapiens, UniProt Q16548).
T1 construct: endogenous in cells; host or cells: A375P melanoma cells (A10); U937 AML cells (A12), lysates
T1 sequence (Q16548 1-175): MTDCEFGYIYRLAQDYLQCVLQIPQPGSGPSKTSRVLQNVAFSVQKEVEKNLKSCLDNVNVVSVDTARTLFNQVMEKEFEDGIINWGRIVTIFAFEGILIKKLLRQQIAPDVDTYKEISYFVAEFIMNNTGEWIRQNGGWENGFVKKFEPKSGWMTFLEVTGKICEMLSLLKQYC
The experiment in a line: BFL-1 targeting in A375P lysates (streptavidin pulldown, BFL-1 western). The settings on record: biotinylated SAHB, compared to acetylated construct. The format is binding. As to the method:
(§1) Cultured A375P and U937 cells were trypsinized or harvested, respectively, washed with PBS, and lysed by incubating with 1% CHAPS lysis buffer (1% CHAPS, 150 mM NaCl, 50 mM Tris pH 7.4, 100 μM DTT). The protein concentrations of the soluble fraction were measured using a BCA kit according to the manufacturer's instructions (Thermo Scientific). Lysate samples (1 mg) were incubated with vehicle or C-terminally biotinylated NOXA SAHBs (30 μM) overnight in 1% CHAPS lysis buffer at 4° C. Biotin capture was accomplished by incubating the mixture with high-capacity SA agarose (Thermo Scientific) for 2 hours at 4° C., followed by centrifugation and washing the pelleted beads three times with lysis buffer (1 mL). Bead-bound proteins were eluted by boiling in 10% SDS containing 10 mg/mL biotin for 10 minutes and then subjected to electrophoresis and western blotting using BFL-1 (Abcam, #125259) and MCL-1 (Rockland #600-401-394S) antibodies.

A further series deals with T2, MCL-1 (Homo sapiens, UniProt Q07820).
T2 construct: endogenous protein in lysates from the A375P melanoma cell line; endogenous in cells; host or cells: A375P melanoma cells (lysate)
The experiment in a line: MCL-1 engagement in A375P lysates (streptavidin pulldown, MCL-1 western). The format is binding. The settings on record: biotinylated SAHB. The protocol:
as §1

For series [3], the target named is T1, native BFL-1. The experiment in a line: BFL-1 targeting in U937 lysates (streptavidin pulldown, BFL-1 western). The format is binding. The settings on record: biotinylated SAHB.
Text: We confirmed that both of our lead constructs could covalently crosslink to full-length BFL-1 protein, which bears a C-terminal helix that could potentially compete with D-NA-NOXA SAHBs for interaction at the canonical BH3-binding pocket in cancer cells. We generated recombinant full-length BFL-1 and expressed HA-tagged full-length BFL-1 in 293T cells, and then conducted crosslinking analyses in vitro and in treated cells, respectively.
as §1

Series [4] concerns the target T3, HA-BFL-1ΔC C4S/C19S / tBID (Homo sapiens, UniProt Q16548, C19S/C4S).
T3 construct: Recombinant anti-apoptotic BFL-1ΔC (aa 1-151) and its cysteine to serine mutants were cloned into PET17b; expressed in transfected cells; host or cells: 293T (lysate)
T3 sequence (Q16548 1-151 C4S/C19S): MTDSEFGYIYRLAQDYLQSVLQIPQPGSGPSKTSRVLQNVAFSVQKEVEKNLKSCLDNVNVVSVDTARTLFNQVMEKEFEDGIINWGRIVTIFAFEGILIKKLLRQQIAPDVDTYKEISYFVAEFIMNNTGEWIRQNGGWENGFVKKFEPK
The experiment in a line: BFL-1/BH3 complex disruption: competition with tBID in 293T lysates. The format is binding. The settings on record: anti-HA immunoprecipitation. As to the method: (§2) To evaluate the capacity of biotinylated SAHBs to compete with tBID for interactions with BFL-1 and MCL-1, 293T cells were transfected with either HA-BFL-1ΔC C4S/C19S or FLAG-MCL-1 in the p3XFLAG-CMV-10 vector (Sigma) as above. After 24 hr, cells were trypsinized, washed with PBS, lysed in 1% CHAPS buffer, and the supernatant collected for protein concentration determination by BCA kit. Lysate samples (0.5 mg) were incubated with 0.25 μM recombinant tBID (R&D Systems) and 5 μM biotinylated NOXA SAHBs for 6 h at RT. The mixtures were then subjected to HA or FLAG immunoprecipitation, followed by western analysis using 1:1000 dilutions of HA (Sigma Aldrich, #12CA5), FLAG (Sigma-Aldrich, F7425), and BID (Santa Cruz sc-11423) antibodies.

A further series deals with T4, FLAG-MCL-1 / tBID (Homo sapiens, UniProt Q07820).
T4 construct: expressed in transfected cells; host or cells: 293T (lysate)
T4 sequence (Q07820 whole entry): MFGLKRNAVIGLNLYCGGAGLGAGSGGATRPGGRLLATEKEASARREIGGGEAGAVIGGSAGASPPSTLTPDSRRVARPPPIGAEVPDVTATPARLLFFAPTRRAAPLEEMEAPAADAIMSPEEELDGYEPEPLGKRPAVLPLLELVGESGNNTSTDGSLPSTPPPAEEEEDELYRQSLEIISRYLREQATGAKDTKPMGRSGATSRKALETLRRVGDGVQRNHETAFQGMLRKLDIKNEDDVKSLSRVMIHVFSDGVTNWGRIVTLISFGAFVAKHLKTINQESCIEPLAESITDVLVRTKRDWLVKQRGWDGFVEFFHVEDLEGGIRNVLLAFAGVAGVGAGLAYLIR
The experiment in a line: MCL-1/tBID complex disruption in 293T lysates. The settings on record: FLAG immunoprecipitation. The format is binding. The protocol: as §2

For series [5], the system named is U937 cells. The experiment in a line: Cell viability (CellTiter-Glo) and CalcuSyn synergy, U937. The following applies: U937 cells (BFL-1-dependent). As to the method: Cell viability and caspase-3/7 activation was measured using CellTiter-Glo and Caspase-Glo 3/7 chemiluminescence reagents (Promega), respectively, and luminescence was detected by a Spectramax M5 microplate reader. Synergy of drug interactions was calculated using the CalcuSyn software (Biosoft).

The next series concerns KG-1 cells. The experiment in a line: Cell viability (CellTiter-Glo) and CalcuSyn synergy, KG-1. The format is cell-based, human. The settings on record: KG-1 AML cells.

Entries after “also recorded” stand apart in the source; their conditions may differ.

Procedure for KG-1 cells: U937, MV4;11, OCI-AML-3, Jurkat, and KG-1 cells cultured in RPMI containing 10% FBS and penicillin-streptomycin were plated in 96-well plates (5×10^3 cells per well) and, after overnight incubation, treated with the indicated concentrations of D-NA-NOXA SAHB and/or AZD0156, Ku-60019, Ku-55933, AZD7762, olaparib, or S63845 (all from Selleck Chemicals) in RPMI supplemented with 5% FBS for the indicated durations. Cell viability and caspase-3/7 activation was measured using CellTiter-Glo and Caspase-Glo 3/7 chemiluminescence reagents (Promega), respectively, and luminescence was detected by a Spectramax M5 microplate reader. Synergy of drug interactions was calculated using the CalcuSyn software (Biosoft).

Regarding JAT8LREFGDXLNFRQ [D-NA-NOXA-15 R31E], the “LDH release (non-specific cell membrane-lytic activity)” value in the series with U937 cells [1] was “no LDH release; also recorded: no non-specific cell membrane-lytic activity”. Further, the entries for the “targeting of native BFL-1” value with native BFL-1 [2] and in the series with native BFL-1 [3] were “enhanced targeting of native BFL-1” and “more effective binder of native BFL-1 protein between the two constructs”, respectively. Besides, in the series with MCL-1, the MCL-1 engagement result is listed as “approximately equivalent binding to MCL-1”. Further, the “competition with tBID for HA-BFL-1ΔC C4S/C19S interaction” value in series [4] is listed as “effectively competes with tBID”. Also, the “dissociation of FLAG-MCL-1/tBID interaction” value with FLAG-MCL-1 / tBID is “neither D-NA- nor Ac-NOXA15 R31E is able to dissociate the interaction”. For the same substance, the “cytotoxicity, single agent” value in the series on U937 cells [5] (listed as D-NA-NOXA SAHB-15 R31E) is recorded as “responsive”; in the series on U937 cells [5] (listed as NOXA-15 R31E SAHB), “selective cytotoxicity”; in the series with KG-1 cells, “dose-responsive cytotoxicity”.
